Our source for the protein stability index values is the supplement of paper PMC10724198.

Data set [1] deals with Saccharomyces cerevisiae. The experiment in a line: protein stability index of tFT-peptide fusion (C-terminal peptide) (PSI (0-1 scale)); higher = more stable (slower turnover). The settings on record: genetic background: wild type; temperature: 30 C.
Data set [2] concerns Saccharomyces cerevisiae. Described as above. Here is the method:
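MPS profiling in S. cerevisiae of the tFT-X12 degron library: putative degron peptides plus stable controls, 12 aa, fused to the C-terminus of a sfGFP-mCherry timer. Cells are FACS-sorted into 8 mCherry/sfGFP bins and deep-sequenced. PSI runs from 0 (unstable) to 1 (stable). Backgrounds are wild type, das1Δ and doa10Δ at 30 °C, and wild type, das1Δ, cdc34-1 and cdc53-1 at 37 °C; 2-3 technical replicates each.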

[3] abbreviates: genetic background: cdc34-1, temperature: 37 C.
[4] abbreviates: genetic background: cdc53-1, temperature: 37 C.
[5] abbreviates: genetic background: das1 deletion, temperature: 30 C.
The mark [6] stands for this setting: genetic background: das1 deletion, temperature: 37 C.
The mark [7] stands for this setting: genetic background: doa10 deletion, temperature: 30 C.
Setting [8] is: genetic background: wild type, temperature: 30 C.
[9] abbreviates: genetic background: wild type, temperature: 37 C.

± gives the standard deviation of the averaged measurements.
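Also: PSI is a weighted mean of sequencing reads over stability bins, variants kept only with over 10 reads, mCherry proximal and sfGFP distal, peptide attached via GGGS linker.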

For CLLLFFIFLLFL, the protein stability index was found to be 0.41 ± 0.05 in the data set on Saccharomyces cerevisiae [1]; 0.484 ± 0.065 with Saccharomyces cerevisiae [2] (setting [3]); 0.452 ± 0.0092 in the data set on Saccharomyces cerevisiae [2] (setting [4]); 0.387 ± 0.036 in the data set with Saccharomyces cerevisiae [2] (setting [5]); 0.463 ± 0.032 in the data set on Saccharomyces cerevisiae [2] (setting [6]); 0.49 ± 0.026 in the data set with Saccharomyces cerevisiae [2] (setting [7]). Further, the values for the protein stability index in the data set with Saccharomyces cerevisiae [2] (setting [8]) and with Saccharomyces cerevisiae [2] (setting [9]) were 0.376 ± 0.024 and 0.493 ± 0.029, respectively.
Turning to CLLLILCFLCVR, the protein stability index with Saccharomyces cerevisiae [1] turned out to be 0.359 ± 0.026; in the data set with Saccharomyces cerevisiae [2] (setting [3]), 0.382 ± 0.0078; in the data set on Saccharomyces cerevisiae [2] (setting [4]), 0.355 ± 0.017; in the data set on Saccharomyces cerevisiae [2] (setting [5]), 0.343 ± 0.021; in the data set with Saccharomyces cerevisiae [2] (setting [6]), 0.4415 ± 0.00095; in the data set on Saccharomyces cerevisiae [2] (setting [7]) it was 0.364 ± 0.028. Also, the protein stability index with Saccharomyces cerevisiae [2] (setting [8]) came to 0.321 ± 0.02; in the data set on Saccharomyces cerevisiae [2] (setting [9]), 0.401 ± 0.016.
Turning to CLRFVFWFVCFV, the protein stability index in the data set on Saccharomyces cerevisiae [1] stood at 0.27 ± 0.087; in the data set with Saccharomyces cerevisiae [2] (setting [3]) it was 0.227 ± 0.047; with Saccharomyces cerevisiae [2] (setting [4]), 0.238 ± 0.0095; with Saccharomyces cerevisiae [2] (setting [5]) it was 0.254 ± 0.03; in the data set on Saccharomyces cerevisiae [2] (setting [6]), 0.351 ± 0.0079; with Saccharomyces cerevisiae [2] (setting [7]), 0.268 ± 0.0087. Besides, the protein stability index with Saccharomyces cerevisiae [2] (setting [8]) is 0.186 ± 0.01; in the data set with Saccharomyces cerevisiae [2] (setting [9]), 0.231 ± 0.018.
Consider CLVISVLFGVVA, for which the protein stability index in the data set with Saccharomyces cerevisiae [2] (setting [3]) was 0.2376 ± 0.00026; in the data set with Saccharomyces cerevisiae [2] (setting [4]), 0.269 ± 0.067; with Saccharomyces cerevisiae [2] (setting [5]), 0.218 ± 0.034; in the data set on Saccharomyces cerevisiae [2] (setting [6]), 0.382 ± 0.0091; in the data set on Saccharomyces cerevisiae [2] (setting [7]), 0.1782 ± 0.0014; with Saccharomyces cerevisiae [2] (setting [8]), 0.21 ± 0.016. Besides, the protein stability index in the data set with Saccharomyces cerevisiae [2] (setting [9]) worked out at 0.326 ± 0.0065.
Consider CLYATQFWGRYG, for which the protein stability index worked out at 0.434 ± 0.07 in the data set with Saccharomyces cerevisiae [1]; 0.69 ± 0.062 in the data set with Saccharomyces cerevisiae [2] (setting [3]); 0.74 ± 0.019 with Saccharomyces cerevisiae [2] (setting [4]); 0.629 ± 0.025 in the data set on Saccharomyces cerevisiae [2] (setting [5]); 0.7737 ± 0.005 in the data set with Saccharomyces cerevisiae [2] (setting [6]); 0.229 ± 0.0079 with Saccharomyces cerevisiae [2] (setting [7]). Moreover, the protein stability index amounted to 0.258 ± 0.033 in the data set with Saccharomyces cerevisiae [2] (setting [8]) and 0.6 ± 0.014 with Saccharomyces cerevisiae [2] (setting [9]).
On to CPYSNAFALCVF, for which the protein stability index worked out at 0.272 ± 0.034 with Saccharomyces cerevisiae [1]; 0.153 ± 0.023 with Saccharomyces cerevisiae [2] (setting [3]); 0.237 ± 0.022 in the data set on Saccharomyces cerevisiae [2] (setting [4]); 0.22 ± 0.026 with Saccharomyces cerevisiae [2] (setting [5]); 0.316 ± 0.0064 with Saccharomyces cerevisiae [2] (setting [6]); 0.183 ± 0.0056 with Saccharomyces cerevisiae [2] (setting [7]). Besides, the protein stability index was determined as 0.192 ± 0.019 with Saccharomyces cerevisiae [2] (setting [8]) and 0.253 ± 0.0037 with Saccharomyces cerevisiae [2] (setting [9]).
Consider CREFLQSMLFYC, for which the protein stability index in the data set on Saccharomyces cerevisiae [1] came out at 0.373 ± 0.1; in the data set with Saccharomyces cerevisiae [2] (setting [3]), 0.688 ± 0.043; with Saccharomyces cerevisiae [2] (setting [4]) it was 0.744 ± 0.017; with Saccharomyces cerevisiae [2] (setting [5]) it was 0.645 ± 0.044; in the data set on Saccharomyces cerevisiae [2] (setting [6]) it was 0.751 ± 0.018; in the data set on Saccharomyces cerevisiae [2] (setting [7]), 0.241 ± 0.016. The protein stability index came out at 0.281 ± 0.021 with Saccharomyces cerevisiae [2] (setting [8]) and 0.56 ± 0.02 with Saccharomyces cerevisiae [2] (setting [9]).
Take CSAVYNLHLLYS: the protein stability index was determined as 0.519 ± 0.076 in the data set with Saccharomyces cerevisiae [1]; 0.696 ± 0.022 with Saccharomyces cerevisiae [2] (setting [3]); 0.745 ± 0.012 in the data set on Saccharomyces cerevisiae [2] (setting [4]); 0.626 ± 0.013 in the data set with Saccharomyces cerevisiae [2] (setting [5]); 0.741 ± 0.011 with Saccharomyces cerevisiae [2] (setting [6]); 0.469 ± 0.04 in the data set on Saccharomyces cerevisiae [2] (setting [7]). Further, the protein stability index came out at 0.48 ± 0.022 in the data set with Saccharomyces cerevisiae [2] (setting [8]) and 0.6452 ± 0.0029 in the data set on Saccharomyces cerevisiae [2] (setting [9]).
For CSFPTFRSLLLL, the protein stability index is 0.3 ± 0.078 in the data set on Saccharomyces cerevisiae [1]; 0.532 ± 0.018 in the data set with Saccharomyces cerevisiae [2] (setting [3]); 0.647 ± 0.014 with Saccharomyces cerevisiae [2] (setting [4]); 0.502 ± 0.018 with Saccharomyces cerevisiae [2] (setting [5]); 0.671 ± 0.014 in the data set with Saccharomyces cerevisiae [2] (setting [6]); 0.218 ± 0.0036 with Saccharomyces cerevisiae [2] (setting [7]). Also, the protein stability index with Saccharomyces cerevisiae [2] (setting [8]) is 0.23 ± 0.021; with Saccharomyces cerevisiae [2] (setting [9]), 0.438 ± 0.058.
In the case of CSPSCNIVRLVS, the protein stability index is 0.294 ± 0.022 in the data set with Saccharomyces cerevisiae [1]; 0.527 ± 0.016 in the data set with Saccharomyces cerevisiae [2] (setting [3]); 0.723 ± 0.025 in the data set on Saccharomyces cerevisiae [2] (setting [4]); 0.632 ± 0.02 in the data set on Saccharomyces cerevisiae [2] (setting [5]); 0.712 ± 0.008 in the data set on Saccharomyces cerevisiae [2] (setting [6]); 0.11 ± 0.018 with Saccharomyces cerevisiae [2] (setting [7]). Moreover, the protein stability index is 0.114 ± 0.017 in the data set on Saccharomyces cerevisiae [2] (setting [8]) and 0.198 ± 0.059 with Saccharomyces cerevisiae [2] (setting [9]).
For CTYSLSVLFVFF, the protein stability index with Saccharomyces cerevisiae [1] came out at 0.382 ± 0.024; in the data set on Saccharomyces cerevisiae [2] (setting [3]), 0.396 ± 0.014; in the data set on Saccharomyces cerevisiae [2] (setting [4]) it was 0.51 ± 0.067; in the data set with Saccharomyces cerevisiae [2] (setting [5]), 0.3 ± 0.03; with Saccharomyces cerevisiae [2] (setting [6]), 0.51 ± 0.056; in the data set with Saccharomyces cerevisiae [2] (setting [7]), 0.252 ± 0.012. Moreover, the figures for the protein stability index in the data set on Saccharomyces cerevisiae [2] (setting [8]) and with Saccharomyces cerevisiae [2] (setting [9]) were 0.307 ± 0.035 and 0.4462 ± 0.0024, respectively.
With CVFFCVLVCFLS, the protein stability index came out at 0.369 ± 0.036 in the data set on Saccharomyces cerevisiae [1]; 0.342 ± 0.0056 in the data set with Saccharomyces cerevisiae [2] (setting [3]); 0.382 ± 0.023 in the data set on Saccharomyces cerevisiae [2] (setting [4]); 0.302 ± 0.048 with Saccharomyces cerevisiae [2] (setting [5]); 0.439 ± 0.006 in the data set with Saccharomyces cerevisiae [2] (setting [6]); 0.317 ± 0.0066 with Saccharomyces cerevisiae [2] (setting [7]). Besides, the protein stability index came out at 0.3 ± 0.027 with Saccharomyces cerevisiae [2] (setting [8]) and 0.377 ± 0.0062 with Saccharomyces cerevisiae [2] (setting [9]).
With FLPPVHRCFSIF, the protein stability index with Saccharomyces cerevisiae [2] (setting [3]) turned out to be 0.671 ± 0.037; in the data set on Saccharomyces cerevisiae [2] (setting [4]), 0.742 ± 0.013; in the data set on Saccharomyces cerevisiae [2] (setting [5]), 0.653 ± 0.022; in the data set with Saccharomyces cerevisiae [2] (setting [6]), 0.745 ± 0.021; with Saccharomyces cerevisiae [2] (setting [7]) it was 0.172 ± 0.014; with Saccharomyces cerevisiae [2] (setting [8]) it was 0.193 ± 0.032. The same sequence gave a protein stability index with Saccharomyces cerevisiae [2] (setting [9]) of 0.3915 ± 0.0028.
As to GFLFVLCAWGFF, the protein stability index with Saccharomyces cerevisiae [2] (setting [3]) was determined as 0.178 ± 0.017; with Saccharomyces cerevisiae [2] (setting [4]), 0.321 ± 0.039; in the data set with Saccharomyces cerevisiae [2] (setting [5]) it was 0.227 ± 0.022; in the data set with Saccharomyces cerevisiae [2] (setting [6]), 0.386 ± 0.019; in the data set on Saccharomyces cerevisiae [2] (setting [7]) it was 0.21 ± 0.0069; in the data set on Saccharomyces cerevisiae [2] (setting [8]), 0.236 ± 0.0048. In the data set on Saccharomyces cerevisiae [2] (setting [9]), this sequence had a protein stability index of 0.318 ± 0.0066.
For GGGWGGRWGRLC, the protein stability index was 0.639 ± 0.047 in the data set on Saccharomyces cerevisiae [2] (setting [3]); 0.754 ± 0.0091 in the data set with Saccharomyces cerevisiae [2] (setting [4]); 0.6543 ± 0.0029 in the data set on Saccharomyces cerevisiae [2] (setting [5]); 0.75462 ± 8e-05 in the data set with Saccharomyces cerevisiae [2] (setting [6]); 0.193 ± 0.021 in the data set with Saccharomyces cerevisiae [2] (setting [7]); 0.218 ± 0.035 in the data set with Saccharomyces cerevisiae [2] (setting [8]). Also, the protein stability index in the data set on Saccharomyces cerevisiae [2] (setting [9]) was found to be 0.479 ± 0.0076.
